In US20230212305A1, “ANTI-ABCG2 ANTIBODIES AND USES THEREOF” (Kenjockety Biotechnology, Inc., priority 2020, published 2023):

T1: ABCG2 (Homo sapiens, UniProt Q9UNQ0)
T1 construct: expressed in transfected cells
T1 sequence (Q9UNQ0 1-655): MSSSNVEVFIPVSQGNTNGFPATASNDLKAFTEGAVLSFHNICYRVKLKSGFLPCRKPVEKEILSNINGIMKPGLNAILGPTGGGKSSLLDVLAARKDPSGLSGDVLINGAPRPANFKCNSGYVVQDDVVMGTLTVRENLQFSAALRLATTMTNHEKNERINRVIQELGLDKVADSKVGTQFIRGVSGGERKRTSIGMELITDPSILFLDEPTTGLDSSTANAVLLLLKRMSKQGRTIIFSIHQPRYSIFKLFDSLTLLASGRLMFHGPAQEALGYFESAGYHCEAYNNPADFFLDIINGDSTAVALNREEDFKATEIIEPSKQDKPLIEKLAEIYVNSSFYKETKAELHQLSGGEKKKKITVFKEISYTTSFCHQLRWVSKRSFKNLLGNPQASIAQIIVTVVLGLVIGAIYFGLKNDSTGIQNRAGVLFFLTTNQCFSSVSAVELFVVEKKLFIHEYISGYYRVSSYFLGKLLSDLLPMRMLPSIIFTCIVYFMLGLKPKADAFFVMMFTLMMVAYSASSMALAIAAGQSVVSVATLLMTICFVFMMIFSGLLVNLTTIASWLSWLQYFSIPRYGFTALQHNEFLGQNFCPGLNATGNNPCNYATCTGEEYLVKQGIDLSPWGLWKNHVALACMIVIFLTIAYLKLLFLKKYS


Columns and labels:
ABCG2 [1] = biological target: T1, ABCG2; test: Flow cytometry binding to 293T cells overexpressing human ABCG2 (293T_ABCG2_OX); design: key to Binding by FACS: binding=“+”; non-significant binding=“−”; conditions: 293T_ABCG2_OX cells
Summary of the method: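 Antibodies serially diluted (from 100 ug/mL or about 666 nM) and incubated 30 min on ice with 293T cells stably expressing human or cynomolgus ABCG2, in PBS/2% FBS/0.02% azide. Bound antibody detected by PE anti-human IgG F(ab′)2, 20 min on ice, flow cytometry; EC50 = concentration giving half-maximal signal.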

293T_ABCG2_OX cells = format: cell-based, human; conditions: cell killing by topotecan on 293T_ABCG2_OX cells; viability relative to IgG control
Procedure: Cytotoxicity Assays. The effect of antibodies on topotecan cytotoxicity was evaluated on 293T_ABCG2_OX cells, 293T cells stably transfected to express ABCG2. Cells were plated in 0.05 mL of Assay Media (DMEM+10% FBS) at 5000 cells/well in white, flat bottom 96-well tissue culture plates. Topotecan was prepared at 2× final assay concentration by serial dilution from 200 uM in assay media containing test antibodies or control antibodies at 100 ug/mL (2× final concentration), or Fumitremorgin C, a small molecule ABCG2 inhibitor at 20 uM (2× final concentration). An equivalent volume (0.05 mL) of the topotecan/antibody mixture was added to the 293T_ABCG2_OX cells in 96-well plates. The plates were then incubated at 37° C., in 5% CO2. After 72-96 hr plates were equilibrated to room temperature and cell viability assessed using Promega® CellTiter-Glo® Luminescent Cell Viability Assay according to the manufacturer's recommended protocol. Luminescence was measured on a Molecular Devices® FlexStation® 3 Multi-Mode Microplate Reader and data analyzed using GraphPad Prism 8.0 software. Half maximal inhibitory concentration (1050) is the concentration of drug (topotecan or other chemotherapy cytotoxic agent) where the response (cell growth) is reduced by 50%.

Panc1/T300 cells = test: Xenograft study with topotecan-resistant Panc1/T300 cells; format: in vivo
Procedure: PANC1 (ATCC, CRL-1469) is a pancreatic ductal epithelial carcinoma cell line. The topotectan-resistant Panc1/T300 cells were developed by continuously incubating PANC1 cells in the culture medium containing increasing concentration of topotecan of 25, 50, 100, 200 and 300 nM. […] The arrows indicate the dosing schedule.

ABCG2 [2] = biological target: T1, ABCG2; format: cell-based
Summary of the method: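 293T cells overexpressing ABCG2 (2×10e6 cells/ml, phenol red-free DMEM) treated with antibodies or inhibitors at 1 μM final, then loaded with 2.5 μM mitoxantrone 1 h at 37° C. After washing, mitoxantrone retention read as fluorescence (ex 635, em 647 nm) to measure efflux blockade.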

cynomolgus ABCG2 = test: Flow cytometry binding to 293T cells overexpressing cynomolgus ABCG2; design: key to Cynomolgus ABCG2 binding: binding=“+”; non-significant binding=“−”
Summary of the method: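 293T cells stably overexpressing cynomolgus ABCG2 were incubated on ice for 30 min with antibody at 5 ug/mL or serial dilutions from 100 ug/mL. Bound antibody detected with PE-labelled anti-human IgG F(ab′)2 by flow cytometry; EC50 taken as concentration giving half-maximal response.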

cynomolgus ABCG2, sequence (as listed by the source): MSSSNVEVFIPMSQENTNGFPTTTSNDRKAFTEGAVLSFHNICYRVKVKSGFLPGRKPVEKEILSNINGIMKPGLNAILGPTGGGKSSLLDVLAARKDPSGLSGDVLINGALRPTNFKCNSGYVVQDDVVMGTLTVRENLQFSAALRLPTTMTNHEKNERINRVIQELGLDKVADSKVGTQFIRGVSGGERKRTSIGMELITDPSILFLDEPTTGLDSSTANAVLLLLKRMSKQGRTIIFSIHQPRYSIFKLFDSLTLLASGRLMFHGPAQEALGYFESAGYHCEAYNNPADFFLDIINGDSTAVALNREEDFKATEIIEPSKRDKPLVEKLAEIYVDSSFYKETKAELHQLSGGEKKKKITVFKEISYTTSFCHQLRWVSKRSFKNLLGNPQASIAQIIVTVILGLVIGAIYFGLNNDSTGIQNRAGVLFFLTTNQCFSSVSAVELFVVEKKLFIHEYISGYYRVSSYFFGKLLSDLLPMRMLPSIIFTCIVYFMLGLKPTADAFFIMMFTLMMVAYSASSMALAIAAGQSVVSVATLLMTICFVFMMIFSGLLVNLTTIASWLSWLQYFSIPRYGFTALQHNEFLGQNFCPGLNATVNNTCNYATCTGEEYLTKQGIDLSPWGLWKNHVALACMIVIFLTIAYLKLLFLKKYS

Molecule	Binding by FACS (ABCG2 [1])	Killing (293T_ABCG2_OX cells)	tumor volume, in combination with topotecan (Panc1/T300 cells)	Block Efflux (ABCG2 [2])	Cynomolgus ABCG2 binding (cynomolgus ABCG2)	Kd (ABCG2 [1]; read-out: Affinity for human ABCG2) [nM]
G2.629 rat: anti-ABCG2 antibody raised in rat (antibody, V domains shown) VH: EVQLVESGGGLVQPGRSLKLSCAASGFIFSRFYMAWVRQAPTKGLEWVAYINTGGGTTYYRDSVKGRFTISRDNAKTTLYLQMDSLRSEDTATYYCTTLAAPWNYVMDAWGQGASVTVSSA VL: DVVMTQSPSLLSASVGDRVTLTCKGSQNINNFLAWYQQKLGEAPKLLTYKTNSLHTGIPSRFSGSGSGTDYTLTISSLHSEDLATYYCYQYNNGYTFGPGTKLELK	+	+ (viability ≥30% and <50% of IgG control)	efficacious in reducing tumor volume	+		
G2.173 Humanized 2: humanized version of anti-ABCG2 antibody G2.173 (antibody, V domains shown) VH: EVQLVQSGAEVKKPGASVKVSCKASGFNIKDDYVHWVRQAPGQGLEWIGRIDPAQGNTRYAPKFRGRATMTADTSISTAYMELSRLRSDDTAVYYCSPPLWVGGFAYWGQGTLVTVSS VL: DVVMTQSPLSLPVTLGQPASISCRSSQSLVHSDVNTYLHWYQQRPGQSPRLLIYKVSNRFSGVPDRFSGSGSGTDFTLKISRVEAEDVGVYFCSQTTHVPYTFGGGTKLEIK	+	− (≥75% of IgG control)		−	−	
G2.173 Humanized 3: humanized version of anti-ABCG2 antibody G2.173 (antibody, V domains shown) VH: EVQLVQSGAEVKKPGASVKVSCKASGFNIKDDYVHWVRQAPGQGLEWIGRIDPASGNTRYAPKFRGRATMTADTSISTAYMELSRLRSDDTAVYYCSPPLWVGGFAYWGQGTLVTVSS VL: DVVMTQSPLSLPVTLGQPASISCRSSQSLVHSDVNTYLHWYQQRPGQSPRLLIYKVSNRFSGVPDRFSGSGSGTDFTLKISRVEAEDVGVYFCSQTTHVPYTFGGGTKLEIK	+	− (≥75% of IgG control)		−	−	
G2.320 rat: anti-ABCG2 antibody raised in rat (antibody, V domains shown) VH: EVQLEESGPGLVKPSQSLSLTCSVTGYTITSGYDWTWIRKFPGNKMEWMGYISYSGFTNYNPSLRSRISITRDTSKNQFFLQLNSVTTEDTATYYCTRTRGYNPFAYWGQGASVSSAS VL: DIVMTQSPSLLSASVGDRVTLSCKAGRNINNYLAWYQQKLGKAPKLLIYNTNSLQTGIPSRFSGSGSGTDFTLTISSLQPEDVATYFCQQYNSWTTFGSGTKLEIK	+	+ (viability ≥30% and <50% of IgG control)		+	+	58
G2.630 rat: anti-ABCG2 antibody raised in rat (antibody, V domains shown) VH: EVQLVESGPGLVKPSQSLSLTCSVTGYTITSGYDWTWIRKFPGNKMEWMGYISYSGFTNYNPSLRSRISITRDTSKNQFFLQLNSVTTEDTATYYCTRTRGYNPFAYWGQGTLVTVSS VL: DVVMTQSPSLLSASVGDRVTLSCKAGRNINNYLAWYQQKLGKAPKLLIYNTNSLQTGIPSRFSGSGSGTDFTLTISSLQPEDVATYFCQQYNSWTTFGSGTKLEIK	+	+ (viability ≥30% and <50% of IgG control)		+	+	
G2.641 rat: anti-ABCG2 antibody raised in rat (antibody, V domains shown) VH: EVKLEESGGGLVQPGRSLKLSCAASGFTFSRFYMAWVRQAPTKGLEWVAHISHGGDTTYYRDSVKGRFTISRDNAKSTLFLQMDSLRSEDTATYYCTTSAAPWNYVMDGWGLGASVTVSS VL: DIQMTQSPSLLSASVGDRVTLTCKGSQNINNFLAWYQQKLGEAPKLLIYKTNSLHTGIPSRFSGSGSGTDYTLTISSLHSEDLATYYCYQYNNGYTFGAGTKLELK	+	++ (viability ≥10% and <30% of IgG control)		++	+	
G2.642 rat: anti-ABCG2 antibody raised in rat (antibody, V domains shown) VH: QIQLVQSGAELVKPGASVKLSCKTSGFTFSSNYISWLRQKPRQSLEWIAWIYSGTGGTYYNQKFTGKAQLTIDTSSNTAYMQLSSLTSEDSAIYYCARHVGLRYWYFDVWGAGTSVTVSS VL: DIVLTQSPASLTVSLGQRATISCRASESVDSNGNSFMHWYQQKPGQSPKVLIYRASNLESGVPARFSGSGSRTDFTLTINPVEADDVATYYCQQSNEDPWTFGGGTKLEIKREF	+	− (≥75% of IgG control)		−	−	
G2.248 mouse: anti-ABCG2 antibody raised in mouse, listed in Table 2 (antibody, V domains shown) VH: QVQLQQPGAELVKPGASVKLSCKTSGFTFSNSYISWLKQKPRQSLEWIAWIYAGTGGTNYNQKFTGKAQLTVDTSSSTAYMQLSSLTSEDSAIYYCATYGNFLYAMDNWGQGTSVTVSS VL: DIQMKQSPASLSASVGETVTITCRASGNIHNYLAWYQQKQGKSPQLLVYNTKTLADGVPSRFSGSGSGTQYSLKINSLQPEDFGSYYCQHFWSTPWTFGGGTKLEIK	+	− (≥75% of IgG control)		−	−	
G2.255 mouse: anti-ABCG2 antibody raised in mouse, listed in Table 2 (antibody, V domains shown) VH: EVMLVESGGALVKPGGSLKLSCAASGFTFSNNAMSWVRQTPETRLEWVATITGGGSYTYYPDSVKGRFTISRDNARNTLYLQMSSLRSEDTATYYCASPDGNYEGVLAYWGQGTLVTVSA VL: DIQMNQSPSSLSASLGDRVTISCSASQGISNYLNWYQQKPDGTIKLLIYYTSTLHSGVPSRFSGSGSGTDYSLTISNLEPEDIATYYCQHYSSLPWTFGGGTKLEIK	+	− (≥75% of IgG control)		−	−	
G2.256 mouse: anti-ABCG2 antibody raised in mouse, listed in Table 2 (antibody, V domains shown) VH: EVQLQQSGPELVKPGASLKISCKTFGYSFTGYYMHWVKQSPEKSLEWIGKIVPSTGGTTYNQKFKAKATLTVDKSSFTAYMQLKSLTSEDSAVYYCAREKVYGYDVYYFDYWGQGTTLTVSS VL: DIVMSQSPATLSVTPGDRVSLSCRASQSISDYLHWYQQKSHESPRLLIKYASQSISGIPSRFSGSGSGSDFTLSINSVEPEDVGVYYCQNGHSFPWTFGGGTKLEIK	+	− (≥75% of IgG control)		−	−	
